Experimental data reported in article PMC5489419 (Molecular cell, 2017).

Molecular target: WWP2 N-terminal fragment X (C2 domain, WW1 domain, WW2 domain) of TEV-cleaved WWP2 (human, UniProt O00308 1-395)
Experiment: SEC

- binding result: binds
B1: WWP2 C-terminal fragment Y (WW3 domain, WW4 domain, HECT domain) of TEV-cleaved WWP2 (domain or fragment)
chain: not shown
